{"source": "paper PMC8748714", "about": "(2022)", "molecules": {"B1": {"name": "wild-type cMyc-GLP-1R, P43220 K197A (protein)", "chain": "RPQGATVSLWETVQKWREYRRQCQRSLTEDPPPATDLFCNRTFDEYACWPDGEPGSFVNVSCPWYLPWASSVPQGHVYRFCTAEGLWLQKDNSSLPWRDLSECEESKRGERSSPEEQLLFLYIIYTVGYALSFSALVIASAILLGFRHLHCTRNYIHLNLFASFILRALSVFIADAALKWMYSTAAQQHQWDGLLSYQDSLSCRLVFLLMQYCVAANYYWLLVEGVYLYTLLAFSVLSEQWIFRLYVSIGWGVPLLFVVPWGIVKYLYEDEGCWTRNSNMNYWLIIRLPILFAIGVNFLIFVRVICIVVSKLKANLMCKTDIKCRLAKSTLTLIPLLGTHEVIFAFVMDEHARGTLRFIKLFTELSFTSFQGLMVAILYCFVNNEVQLEFRKSWERWRLEHLHIQRDSSMKPLKCPTSSLSSGATAGSSMYTATCQASCS"}, "B2": {"name": "wild-type cMyc-GLP-1R, P43220 W297A (protein)", "chain": "B1 chain with A174K, W274A"}, "B3": {"name": "wild-type cMyc-GLP-1R, P43220 R190A (protein)", "chain": "B1 chain with R167A, A174K"}}, "key": {"[1]": {"biological_target": "cMyc-GLP-1R Y148A (human) (UniProt P43220)"}, "[2]": {"biological_target": "GLP-1R S206A (Homo sapiens)"}, "[3]": {"biological_target": "GLP-1R L141A (Homo sapiens)"}, "[4]": {"biological_target": "GLP-1R Y145A (Homo sapiens)"}, "[5]": {"biological_target": "GLP-1R D198A (Homo sapiens)"}, "[6]": {"biological_target": "GLP-1R Y205A (Homo sapiens)"}, "[7]": {"biological_target": "GLP-1R H212A (Homo sapiens)"}, "[8]": {"biological_target": "GLP-1R M204A (Homo sapiens)"}, "[9]": {"biological_target": "GLP-1R L144A (Homo sapiens)"}, "[10]": {"biological_target": "GLP-1R K202A (Homo sapiens)"}, "[11]": {"biological_target": "cMyc-GLP-1R K197A (human) (UniProt P43220)"}, "[12]": {"biological_target": "GLP-1R Q211A (Homo sapiens)"}, "[13]": {"biological_target": "GLP-1R P137A (Homo sapiens)"}, "[14]": {"biological_target": "cMyc-GLP-1R Y152A (human) (UniProt P43220)"}, "[15]": {"biological_target": "GLP-1R Q210A (Homo sapiens)"}, "[16]": {"biological_target": "GLP-1R V194A (Homo sapiens)"}, "[17]": {"biological_target": "GLP-1R E138A (Homo sapiens)"}, "[18]": {"biological_target": "GLP-1R S193A (Homo sapiens)"}, "[19]": {"biological_target": "cMyc-GLP-1R R190A (human) (UniProt P43220)"}, "[20]": {"biological_target": "GLP-1R L142A (Homo sapiens)"}, "[21]": {"biological_target": "wild-type cMyc-GLP-1R (human) (UniProt P43220)"}, "[22]": {"biological_target": "GLP-1R L201A (Homo sapiens)"}, "[23]": {"biological_target": "cMyc-GLP-1R Y148A (human) (UniProt P43220)", "remark": "listed apart in the source"}, "exendin-P5 [24]": {"biological_target": "exendin-P5", "assay": "radioligand competition binding on whole cells", "settings": "parent: est. 0; read off a plot"}, "exendin-P5 [25]": {"biological_target": "exendin-P5", "assay": "radioligand competition binding on whole cells", "settings": "parent: est. 0; read off a plot", "remark": "listed apart in the source"}, "exendin-4, P26349": {"biological_target": "exendin-4, P26349", "assay": "radioligand competition binding on whole cells", "settings": "chain shown with the change;; parent: est. 0; read off a plot"}}, "note": "Substitutions are numbered along the chain they refer to. Numbers in names are those of the source. Read-outs that look alike come from different tables or passages of the source."}
{"molecule": "exendin-4 (from UniProt P26349 48-87)", "values": [{"measurement": "IC50", "setting": "[1]", "value": 7.76, "unit": "nM"}, {"measurement": "IC50", "setting": "[2]", "value": 2.19, "unit": "nM"}, {"measurement": "IC50", "setting": "[3]", "value": 4.9, "unit": "nM"}, {"measurement": "IC50", "setting": "[4]", "value": 0.617, "unit": "nM"}, {"measurement": "IC50", "setting": "[5]", "value": 162, "unit": "nM"}, {"measurement": "IC50", "setting": "[6]", "value": 8.91, "unit": "nM"}, {"measurement": "IC50", "setting": "[7]", "value": 0.479, "unit": "nM"}, {"measurement": "IC50", "setting": "[8]", "value": 17.8, "unit": "nM"}, {"measurement": "IC50", "setting": "[9]", "value": 0.741, "unit": "nM"}, {"measurement": "IC50", "setting": "[10]", "value": 1.91, "unit": "nM"}, {"measurement": "IC50", "setting": "[11]", "value": 25.1, "unit": "nM"}, {"measurement": "IC50", "setting": "[12]", "value": 4.37, "unit": "nM"}, {"measurement": "IC50", "setting": "[13]", "value": 3.89, "unit": "nM"}, {"measurement": "IC50", "setting": "[14]", "value": 38, "unit": "nM"}, {"measurement": "IC50", "setting": "[15]", "value": 2.09, "unit": "nM"}, {"measurement": "IC50", "setting": "[16]", "value": 11.7, "unit": "nM"}, {"measurement": "IC50", "setting": "[17]", "value": 0.661, "unit": "nM"}, {"measurement": "IC50", "setting": "[18]", "value": 1.38, "unit": "nM"}, {"measurement": "IC50", "setting": "[19]", "value": 407, "unit": "nM"}, {"measurement": "IC50", "setting": "[20]", "value": 0.692, "unit": "nM"}, {"measurement": "IC50", "setting": "[21]", "value": 0.891, "unit": "nM"}, {"measurement": "IC50", "setting": "[22]", "value": 3.47, "unit": "nM"}]}
{"molecule": "exendin-P5", "values": [{"measurement": "IC50", "setting": "GLP-1R S193A", "value": 75.9, "unit": "nM"}, {"measurement": "IC50", "setting": "GLP-1R L141A", "value": 102, "unit": "nM"}, {"measurement": "IC50", "setting": "GLP-1R S206A", "value": 269, "unit": "nM"}, {"measurement": "IC50", "setting": "GLP-1R V194A", "value": 182, "unit": "nM"}, {"measurement": "IC50", "setting": "GLP-1R Q211A", "value": 240, "unit": "nM"}, {"measurement": "IC50", "setting": "GLP-1R Q210A", "value": 501, "unit": "nM"}, {"measurement": "IC50", "setting": "GLP-1R L201A", "value": 251, "unit": "nM"}, {"measurement": "IC50", "setting": "GLP-1R Y205A", "value": 69.2, "unit": "nM"}, {"measurement": "IC50", "setting": "[23]", "value": 135, "unit": "nM"}, {"measurement": "IC50", "setting": "GLP-1R Y145A", "value": 46.8, "unit": "nM"}, {"measurement": "IC50", "setting": "GLP-1R K202A", "value": 170, "unit": "nM"}, {"measurement": "IC50", "setting": "GLP-1R M204A", "value": 67.6, "unit": "nM"}, {"measurement": "IC50", "setting": "GLP-1R P137A", "value": 437, "unit": "nM"}, {"measurement": "IC50", "setting": "GLP-1R E138A", "value": 60.3, "unit": "nM"}, {"measurement": "IC50", "setting": "GLP-1R L144A", "value": 257, "unit": "nM"}, {"measurement": "IC50", "setting": "GLP-1R L142A", "value": 537, "unit": "nM"}, {"measurement": "IC50", "setting": "GLP-1R D198A", "value": 191, "unit": "nM"}, {"measurement": "IC50", "setting": "GLP-1R H212A", "value": 282, "unit": "nM"}]}
{"molecule": "wild-type cMyc-GLP-1R (from UniProt P43220) E364A", "values": [{"measurement": "log10 ratio", "setting": "exendin-P5 [24]", "value": -0.95, "unit": "pIC50 ΔWT"}, {"measurement": "log10 ratio", "setting": "exendin-P5 [25]", "value": -1, "unit": "pIC50 ΔWT"}]}
{"molecule": "wild-type cMyc-GLP-1R (from UniProt P43220) E387A", "values": [{"measurement": "log10 ratio", "setting": "exendin-P5 [24]", "value": -1.1, "unit": "pIC50 ΔWT"}, {"measurement": "log10 ratio", "setting": "exendin-P5 [25]", "value": -1.1, "unit": "pIC50 ΔWT"}]}
{"molecule": "wild-type cMyc-GLP-1R (from UniProt P43220) W297A", "values": [{"measurement": "log10 ratio", "setting": "exendin-P5 [24]", "value": -1.3, "unit": "pIC50 ΔWT"}, {"measurement": "log10 ratio", "setting": "exendin-P5 [25]", "value": -1.2, "unit": "pIC50 ΔWT"}]}
{"molecule": "B1", "values": [{"measurement": "log10 ratio", "setting": "exendin-4, P26349", "value": -1.5, "unit": "pIC50 ΔWT"}]}
{"molecule": "B2", "values": [{"measurement": "log10 ratio", "setting": "exendin-4, P26349", "value": -1.5, "unit": "pIC50 ΔWT"}]}
{"molecule": "B3", "values": [{"measurement": "log10 ratio", "setting": "exendin-4, P26349", "value": -2.6, "unit": "pIC50 ΔWT"}]}
